# Experimental data taken from publication PMC8285477, “The molecular basis of regulation of bacterial capsule assembly by Wzc” (Nature Communications, 2021).
# Key:
# [1] = biological target: Wzc^K540M triple (715, 717 and 718) Tyr to Glu mutant (E. coli E69 (O9a:K30)) (UniProt P76387); assay: EM (kind not stated); particles of purified Tyr to Glu mutants of Wzc^K540M on EM grids, percentage of octamers (Supplementary Fig. 8a)
# [2] = biological target: Wzc^K540M4YE (E. coli E69 (O9a:K30)); assay: cryo-EM structure; purified protein ~2 mg/ml in LMNG, apo and with ADP and Mg2+; C1 and C8 reconstructions
# [3] = biological target: Wzc^K540M4YE (E. coli E69 (O9a:K30)); assay: cryo-EM 2D classification of particles; purified protein ~1.8-2 mg/ml vitrified on grids, reference-free 2D class averages
# [4] = biological target: Wzc^K540MΔMotif3 (E. coli E69 (O9a:K30)) (UniProt P76387); assay: as above
# [5] = biological target: Wzc^K540M double (717 and 718) Tyr to Glu mutant (E. coli E69 (O9a:K30)) (UniProt P76387); assay: EM (kind not stated); particles of purified Tyr to Glu mutants of Wzc^K540M on EM grids, percentage of octamers (Supplementary Fig. 8a)
# [6] = biological target: Wzc^K540M (E. coli E69 (O9a:K30)); assay: negative-stain EM; purified protein around 0.05 mg/ml on carbon-coated grids, 0.75% uranyl formate
# [7] = biological target: Wzc^K540M (E. coli E69 (O9a:K30)); assay: cryo-EM structure; purified protein ~2 mg/ml in LMNG, apo and with ADP and Mg2+; C1 and C8 reconstructions
# [8] = biological target: Wzb treated Wzc (E. coli E69 (O9a:K30), UniProt P76387 1-720); assay: cryo-EM 2D classification of particles; purified protein ~1.8-2 mg/ml vitrified on grids, reference-free 2D class averages; details: both partners purified
molecule,measurement,setting,value
"Wzc^K540M triple (715, 717 and 718) Tyr to Glu mutant (from UniProt P76387 1-720) (enzyme)",stoichiometry N,[1],8
Wzc^K540M4YE (from UniProt P76387 1-720) (enzyme),stoichiometry N,[2],8
same,percent of particles that are octamers,[3],50%
Wzc^K540MΔMotif3 (from UniProt P76387 1-720) (enzyme),stoichiometry N,[4],8
Wzc^K540M double (717 and 718) Tyr to Glu mutant (from UniProt P76387 1-720) (enzyme),stoichiometry N,[5],8
Wzc^K540M (from UniProt P76387 1-720) (enzyme),stoichiometry N,[6],8
same,stoichiometry N,[7],8
"Wzb treated Wzc (enzyme, dephosphorylated by phosphatase Wzb; about 0.1% octameric particles; C-terminal His6 omitted; the PDB entity is the K540M construct, reverted to K540 / dephosphorylated by phosphatase Wzb; about 0.1%) MTSVTSKQSTILGSDEIDLGRVIGELIDHRKLIISITSVFTLFAILYALLATPIYETDALIQIEQKQGNAILSSLSQVLPDGQPQSAPETALLQSRMILGKTIDDLNLQIQIEQKYFPVIGRGLARLMGEKPGNIDITRLYLPDSDDISNNTPSIILTVKDKENYSINSDGIQLNGVVGTLLNEKGISLLVNEIDAKPGDQFVITQLPRLKAISDLLKSFSVADLGKDTGMLTLTLTGDNPKRISHILDSISQNYLAQNIARQAAQDAKSLEFLNQQLPKVRAELDSAEDKLNAYRKQKDSVDLNMEAKSVLDQIVNVDNQLNELTFREAEVSQLYTKEHPTYKALMEKRQTLQEEKSKLNKRVSSMPSTQQEVLRLSRDVESGRAVYLQLLNRQQELNIAKSSAIGNVRIIDNAVTDPNPVRPKKTIIIVIGVVLGLIVSVVLVLFQVFLRRGIESPEQLEEIGINVYASIPISEWLTKNARQSGKVRKNQSDTLLAVGNPADLAVEAIRGLRTSLHFAMMEAKNNVLMISGASPSAGKTFISSNLAATIAITGKKVLFIDADLRKGYAHKMFGHKNDKGLSEFLSGQAAAEMIIDKVEGGGFDYIGRGQIPPNPAELLMHPRFEQLLNWASQNYDLIIIDTPPILAVTDAAIIGRYAGTCLLVARFEKNTVKEIDVSMKRFEQSGVVVKGCILNGVVKKASSYYRYGHNHYGYSYYDKK",stoichiometry N,[8],8
